# Test results as given in patent US20250121089A1, “COMPOSITIONS AND METHODS FOR ENHANCING THE EFFECT OF A TROP-2 SPECIFIC THERAPEUTIC” (priority 2023, published 2025).
# What was measured:
# [1] = test system: A549 cells; test: Apoptosis, annexin V / 7AAD flow cytometry, TTFields with or without Sacituzumab Govitecan; assay type: cell-based, human; conditions: concomitant with TTFields 1.62 V/cm RMS, 150 kHz, 72 h, FIG. 5
# Procedure: Tests were performed on three different cell types: A549, A2780 and 4T1. A549 cells are adenocarcinomec human alveolar basal epithelial cells. A2780 is a human ovarian cancer cell line. 4T1 is a breast cancer cell line derived from the mammary gland tissue of a mouse BALB/c strain. […] NSCLC cells A549 were treated for 72 h with TTFields at an intensity of 1.62 V/cm RMS and a frequency of 150 kHz using the Inovitro system. TTFields were applied to the cells in the absence or presence of the Trop2 inhibitor Sacituzumab Govitecan. Treated cells were double-stained with FITC-conjugated annexin V and 7-aminoactinomycin D (7AAD), and data acquisition was performed using a flow cytometer.
# [2] = test system: A2780 cells; test: Cytotoxic effect (cell count by flow cytometer), TTFields with or without Sacituzumab Govitecan; assay type: cell-based, human; conditions: concomitant with TTFields 1.62 V/cm RMS, 200 kHz, 72 h; FIG. 6
# Procedure: (§1) Tests were performed on three different cell types: A549, A2780 and 4T1. A549 cells are adenocarcinomec human alveolar basal epithelial cells. A2780 is a human ovarian cancer cell line. 4T1 is a breast cancer cell line derived from the mammary gland tissue of a mouse BALB/c strain.
# (§2) Ovarian carcinoma cells A2780 were treated for 72 h with TTFields at an intensity of 1.62 V/cm RMS and a frequency of 200 kHz using the Inovitro system. TTFields were applied to the cells in the absence or presence of the Trop2 inhibitor Sacituzumab Govitecan. Treated cells were counted using a flow cytometer, and cytotoxic effect was calculated relative to control cells.
# [3] = test system: A549 cells; test: as above; assay type: cell-based, human; conditions: concomitant with TTFields 1.62 V/cm RMS, 150 kHz, 72 h; FIG. 3
# Procedure: as §1
# as §2, with “NSCLC” for “Ovarian carcinoma”, “A549” for “A2780”, “150” for “200”
# [4] = test system: A2780 cells; test: Overall effect (cytotoxic x clonogenic effect), TTFields with or without Sacituzumab Govitecan; assay type: cell-based, human; conditions: concomitant with TTFields 1.62 V/cm RMS, 200 kHz, 72 h; re-plated, grown 7-14 days; FIG. 7
# Procedure: as §1
# (§3) Ovarian carcinoma cells A2780 were treated for 72 h with TTFields at an intensity of 1.62 V/cm RMS and a frequency of 200 kHz using the Inovitro system. TTFields were applied to the cells in the absence or presence of the Trop2 inhibitor Sacituzumab Govitecan. Treated cells were harvested, re-plated, and grown for an additional 7-14 days. Colonies were stained (0.5% crystal violet solution), counted, and clonogenic effect was calculated relative to control. Overall effect was calculated by multiplying the cytotoxic and clonogenic effects.
# [5] = test system: 4T1 cells; test: as above; assay type: cell-based, mouse; conditions: concomitant with TTFields 1.62 V/cm RMS, 150 kHz, 72 h; re-plated, grown 7-14 days; FIG. 10
# Procedure: as §1
# as §3, with “Mammary” for “Ovarian”, “4T1” for “A2780”, “150” for “200”
# [6] = test system: 4T1 cells; test: Cytotoxic effect (cell count by flow cytometer), TTFields with or without Sacituzumab Govitecan; assay type: cell-based, mouse; conditions: concomitant with TTFields 1.62 V/cm RMS, 150 kHz, 72 h; FIG. 9
# Procedure: as §1
# as §2, with “Mammary” for “Ovarian”, “4T1” for “A2780”, “150” for “200”
# [7] = test system: A549 cells; test: Overall effect (cytotoxic x clonogenic effect), TTFields with or without Sacituzumab Govitecan; assay type: cell-based, human; conditions: concomitant with TTFields 1.62 V/cm RMS, 150 kHz, 72 h; re-plated, grown 7-14 days; FIG. 4
# Procedure: as §1
# as §3, with “NSCLC” for “Ovarian carcinoma”, “A549” for “A2780”, “150” for “200”
# [8] = test system: 4T1 cells; test: Apoptosis, annexin V / 7AAD flow cytometry, TTFields with or without Sacituzumab Govitecan; assay type: cell-based, mouse; conditions: concomitant with TTFields 1.62 V/cm RMS, 150 kHz, 72 h, FIG. 11
# Procedure: Tests were performed on three different cell types: A549, A2780 and 4T1. A549 cells are adenocarcinomec human alveolar basal epithelial cells. A2780 is a human ovarian cancer cell line. 4T1 is a breast cancer cell line derived from the mammary gland tissue of a mouse BALB/c strain. Lastly, like A549 cells (FIGS. 5) and A2780 cells (FIG. 8), concomitant treatment of TTFields with Sacituzumab Govitecan enhanced the apoptotic effect in 4T1 cells (FIG. 11). Mammary carcinoma cells 4T1 were treated for 72 h with TTFields at an intensity of 1.62 V/cm RMS and a frequency of 150 kHz using the Inovitro system. TTFields were applied to the cells in the absence or presence of the Trop2 inhibitor Sacituzumab Govitecan. Treated cells were double-stained with FITC-conjugated annexin V and 7-aminoactinomycin D (7AAD), and data acquisition was performed using a flow cytometer. AnnexinV−7AAD−, live cells; AnnexinV+7AAD−, cells at early apoptosis; AnnexinV+7AAD+, cells at late apoptosis.
# [9] = test system: A2780 cells; test: as above; assay type: cell-based, human; conditions: concomitant with TTFields 1.62 V/cm RMS, 200 kHz, 72 h, FIG. 8
# Procedure: Tests were performed on three different cell types: A549, A2780 and 4T1. A549 cells are adenocarcinomec human alveolar basal epithelial cells. A2780 is a human ovarian cancer cell line. 4T1 is a breast cancer cell line derived from the mammary gland tissue of a mouse BALB/c strain. […] Ovarian carcinoma cells A2780 were treated for 72 h with TTFields at an intensity of 1.62 V/cm RMS and a frequency of 200 kHz using the Inovitro system. TTFields were applied to the cells in the absence or presence of the Trop2 inhibitor Sacituzumab Govitecan. Treated cells were double-stained with FITC-conjugated annexin V and 7-aminoactinomycin D (7AAD), and data acquisition was performed using a flow cytometer.
substance,measurement,setting,value
Sacituzumab Govitecan,apoptotic effect in A549 cells,[1],enhanced
same,A2780 cell growth (cytotoxic effect relative to control cells),[2],synergistically inhibited
same,A549 cell growth (cytotoxic effect relative to control cells),[3],synergistically inhibited
same,overall effect in A2780 cells (cytotoxic x clonogenic effects),[4],synergistically elevated
same,overall effect in 4T1 cells (cytotoxic x clonogenic effects),[5],synergistically elevated
same,4T1 cell growth (cytotoxic effect relative to control cells),[6],synergistically inhibited
same,overall effect in A549 cells (cytotoxic x clonogenic effects),[7],synergistically elevated
same,apoptotic effect in 4T1 cells,[8],enhanced
same,apoptotic effect in A2780 cells,[9],enhanced
